Tests used:
Assay in all cases: cell-based or functional assay
NEK11(h) = target: T1, NEK11(h) (human, UniProt Q8NG66 1-645, limits assumed)
T1 sequence (looked up): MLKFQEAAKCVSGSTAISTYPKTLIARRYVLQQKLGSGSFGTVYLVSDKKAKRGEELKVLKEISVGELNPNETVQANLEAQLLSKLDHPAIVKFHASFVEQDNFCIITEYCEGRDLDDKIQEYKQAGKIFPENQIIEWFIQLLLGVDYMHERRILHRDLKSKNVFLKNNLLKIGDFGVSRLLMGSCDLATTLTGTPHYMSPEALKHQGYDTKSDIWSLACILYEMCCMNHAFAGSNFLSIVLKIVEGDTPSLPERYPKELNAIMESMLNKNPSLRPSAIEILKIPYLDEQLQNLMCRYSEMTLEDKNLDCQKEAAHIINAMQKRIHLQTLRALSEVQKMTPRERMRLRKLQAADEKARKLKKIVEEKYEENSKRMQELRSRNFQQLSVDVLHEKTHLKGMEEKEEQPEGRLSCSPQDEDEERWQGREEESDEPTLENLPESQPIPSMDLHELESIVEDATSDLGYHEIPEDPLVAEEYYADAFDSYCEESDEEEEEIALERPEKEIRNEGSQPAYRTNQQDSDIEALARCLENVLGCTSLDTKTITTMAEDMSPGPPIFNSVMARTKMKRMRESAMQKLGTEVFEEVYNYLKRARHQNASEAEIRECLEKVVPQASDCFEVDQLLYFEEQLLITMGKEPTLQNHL

AMPKa1(h) = AMPKa1(h) (human, UniProt Q13131 1-559, limits assumed)
Chain of AMPKa1(h) (Q13131 whole entry): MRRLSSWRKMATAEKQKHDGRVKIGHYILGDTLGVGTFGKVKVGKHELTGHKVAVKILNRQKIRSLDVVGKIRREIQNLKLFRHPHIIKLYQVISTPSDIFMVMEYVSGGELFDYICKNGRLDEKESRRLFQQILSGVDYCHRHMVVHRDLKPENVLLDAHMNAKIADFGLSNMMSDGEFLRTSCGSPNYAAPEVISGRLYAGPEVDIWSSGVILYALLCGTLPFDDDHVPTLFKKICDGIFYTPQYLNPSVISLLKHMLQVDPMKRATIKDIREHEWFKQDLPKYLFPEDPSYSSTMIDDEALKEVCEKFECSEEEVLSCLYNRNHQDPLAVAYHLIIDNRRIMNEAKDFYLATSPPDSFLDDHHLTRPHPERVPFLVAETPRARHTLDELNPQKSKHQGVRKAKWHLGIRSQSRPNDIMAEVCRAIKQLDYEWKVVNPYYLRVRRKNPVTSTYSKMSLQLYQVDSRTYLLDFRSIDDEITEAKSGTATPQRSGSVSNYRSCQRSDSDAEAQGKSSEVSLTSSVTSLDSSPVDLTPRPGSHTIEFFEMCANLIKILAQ

JNK1α1(h) = JNK1α1(h) (human, UniProt P45983-2 1-384)
Chain of JNK1α1(h) (P45983 other isoform, or with tags, fused parts or gaps limits assumed): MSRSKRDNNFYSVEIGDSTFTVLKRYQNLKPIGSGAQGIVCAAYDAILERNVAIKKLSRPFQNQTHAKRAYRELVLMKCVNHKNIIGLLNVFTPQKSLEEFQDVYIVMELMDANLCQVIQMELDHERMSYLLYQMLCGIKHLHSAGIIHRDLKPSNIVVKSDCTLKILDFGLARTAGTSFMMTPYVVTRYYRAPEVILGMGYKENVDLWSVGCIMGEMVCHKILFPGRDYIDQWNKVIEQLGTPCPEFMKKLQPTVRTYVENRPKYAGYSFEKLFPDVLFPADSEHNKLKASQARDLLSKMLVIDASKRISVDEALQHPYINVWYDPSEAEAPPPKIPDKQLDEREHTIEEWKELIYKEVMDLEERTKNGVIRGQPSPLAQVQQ

EphA8(h) = target: T2, EphA8(h) (human, UniProt P29322 564-1005, limits assumed)
T2 sequence (looked up): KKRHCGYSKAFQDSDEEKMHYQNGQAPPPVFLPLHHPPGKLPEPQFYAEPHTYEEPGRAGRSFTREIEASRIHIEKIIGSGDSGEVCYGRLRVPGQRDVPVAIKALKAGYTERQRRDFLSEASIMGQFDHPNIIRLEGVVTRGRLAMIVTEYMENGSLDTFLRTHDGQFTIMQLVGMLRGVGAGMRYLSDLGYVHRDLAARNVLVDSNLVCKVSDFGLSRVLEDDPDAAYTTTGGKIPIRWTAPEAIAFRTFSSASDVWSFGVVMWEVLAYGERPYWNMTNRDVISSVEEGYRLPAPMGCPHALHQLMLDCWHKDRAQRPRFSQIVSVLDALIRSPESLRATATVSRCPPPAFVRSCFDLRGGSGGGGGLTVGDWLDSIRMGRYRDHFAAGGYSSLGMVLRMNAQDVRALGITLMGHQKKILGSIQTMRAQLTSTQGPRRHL

PAK6(h) = PAK6(h) (human, UniProt Q9NQU5 1-681, limits assumed)
Chain of PAK6(h) (Q9NQU5 whole entry): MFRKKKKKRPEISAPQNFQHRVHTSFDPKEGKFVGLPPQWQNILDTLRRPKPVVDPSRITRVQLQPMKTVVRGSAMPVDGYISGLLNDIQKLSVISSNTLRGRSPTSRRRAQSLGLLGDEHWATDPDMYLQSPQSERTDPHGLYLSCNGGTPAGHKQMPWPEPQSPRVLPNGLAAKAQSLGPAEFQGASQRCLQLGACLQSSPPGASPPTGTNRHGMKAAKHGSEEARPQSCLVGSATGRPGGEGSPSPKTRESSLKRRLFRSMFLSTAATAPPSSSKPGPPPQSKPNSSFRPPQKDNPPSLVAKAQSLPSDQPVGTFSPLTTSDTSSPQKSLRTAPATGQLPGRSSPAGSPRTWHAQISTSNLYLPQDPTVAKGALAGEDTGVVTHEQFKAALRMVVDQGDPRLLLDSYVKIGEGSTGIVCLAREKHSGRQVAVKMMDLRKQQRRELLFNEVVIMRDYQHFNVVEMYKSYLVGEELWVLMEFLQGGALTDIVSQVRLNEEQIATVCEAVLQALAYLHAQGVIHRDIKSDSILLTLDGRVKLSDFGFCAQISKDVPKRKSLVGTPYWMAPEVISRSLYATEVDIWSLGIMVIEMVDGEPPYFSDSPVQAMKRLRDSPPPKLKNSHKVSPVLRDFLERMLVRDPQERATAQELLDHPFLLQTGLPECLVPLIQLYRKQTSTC

Ret(h) = target: T3, Ret(h) (human, UniProt P07949 658-1114, limits assumed)
T3 sequence (looked up): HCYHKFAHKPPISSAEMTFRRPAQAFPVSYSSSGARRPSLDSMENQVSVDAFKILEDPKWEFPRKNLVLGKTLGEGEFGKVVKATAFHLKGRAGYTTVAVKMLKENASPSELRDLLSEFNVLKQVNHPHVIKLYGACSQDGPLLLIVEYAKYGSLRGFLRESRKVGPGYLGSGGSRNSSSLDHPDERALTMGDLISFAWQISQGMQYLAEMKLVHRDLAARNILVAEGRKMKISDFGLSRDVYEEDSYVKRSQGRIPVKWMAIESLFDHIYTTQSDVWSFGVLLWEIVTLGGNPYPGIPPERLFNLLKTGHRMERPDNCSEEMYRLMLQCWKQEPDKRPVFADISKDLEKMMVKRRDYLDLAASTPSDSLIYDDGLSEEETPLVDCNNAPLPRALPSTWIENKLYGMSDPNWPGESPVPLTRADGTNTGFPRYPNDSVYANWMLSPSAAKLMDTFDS

DMPK(h) = target: T4, DMPK(h) (human, UniProt Q09013 1-629, limits assumed)
T4 sequence (looked up): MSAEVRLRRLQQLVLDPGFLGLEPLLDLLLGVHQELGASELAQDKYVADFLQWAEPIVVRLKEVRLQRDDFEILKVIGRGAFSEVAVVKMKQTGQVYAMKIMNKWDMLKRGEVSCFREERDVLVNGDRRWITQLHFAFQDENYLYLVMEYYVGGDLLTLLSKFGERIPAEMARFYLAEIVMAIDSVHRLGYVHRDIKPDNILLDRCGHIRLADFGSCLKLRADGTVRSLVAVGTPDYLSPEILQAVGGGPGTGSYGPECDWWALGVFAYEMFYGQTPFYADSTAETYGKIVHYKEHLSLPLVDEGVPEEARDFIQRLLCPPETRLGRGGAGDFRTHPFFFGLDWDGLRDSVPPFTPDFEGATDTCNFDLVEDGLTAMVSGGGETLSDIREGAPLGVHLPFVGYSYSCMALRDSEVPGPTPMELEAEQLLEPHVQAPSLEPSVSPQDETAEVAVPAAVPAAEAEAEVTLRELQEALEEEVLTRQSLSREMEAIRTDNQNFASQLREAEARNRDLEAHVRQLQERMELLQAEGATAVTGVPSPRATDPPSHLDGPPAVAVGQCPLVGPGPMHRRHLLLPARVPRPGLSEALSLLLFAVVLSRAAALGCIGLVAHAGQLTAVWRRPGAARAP

Rsk2(h) = Rsk2(h) (human, UniProt P51812 1-740, limits assumed)
Chain of Rsk2(h) (P51812 whole entry): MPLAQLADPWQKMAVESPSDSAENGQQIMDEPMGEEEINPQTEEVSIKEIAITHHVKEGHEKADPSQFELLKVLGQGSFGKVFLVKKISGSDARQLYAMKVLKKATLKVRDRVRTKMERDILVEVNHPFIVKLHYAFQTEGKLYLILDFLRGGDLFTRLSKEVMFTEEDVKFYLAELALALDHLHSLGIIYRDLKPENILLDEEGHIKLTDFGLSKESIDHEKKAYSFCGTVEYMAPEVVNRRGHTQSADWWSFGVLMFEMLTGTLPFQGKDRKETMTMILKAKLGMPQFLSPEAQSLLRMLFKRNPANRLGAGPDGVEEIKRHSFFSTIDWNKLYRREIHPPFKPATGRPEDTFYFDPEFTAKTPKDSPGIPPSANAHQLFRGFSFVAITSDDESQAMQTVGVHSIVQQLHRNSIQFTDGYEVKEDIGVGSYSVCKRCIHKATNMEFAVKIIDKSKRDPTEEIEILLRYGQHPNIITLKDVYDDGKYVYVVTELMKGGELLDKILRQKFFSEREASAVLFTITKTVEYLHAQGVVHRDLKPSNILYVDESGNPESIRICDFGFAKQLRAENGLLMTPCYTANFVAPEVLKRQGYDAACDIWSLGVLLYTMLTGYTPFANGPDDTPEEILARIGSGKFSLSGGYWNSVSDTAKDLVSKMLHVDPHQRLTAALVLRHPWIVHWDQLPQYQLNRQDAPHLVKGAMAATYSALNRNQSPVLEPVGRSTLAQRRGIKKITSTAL

CHK2(I157T)(h) = CHK2(I157T)(h) (human, UniProt O96017 5-543, limits assumed)
Chain of CHK2(I157T)(h) (O96017 5-543 I157T limits assumed): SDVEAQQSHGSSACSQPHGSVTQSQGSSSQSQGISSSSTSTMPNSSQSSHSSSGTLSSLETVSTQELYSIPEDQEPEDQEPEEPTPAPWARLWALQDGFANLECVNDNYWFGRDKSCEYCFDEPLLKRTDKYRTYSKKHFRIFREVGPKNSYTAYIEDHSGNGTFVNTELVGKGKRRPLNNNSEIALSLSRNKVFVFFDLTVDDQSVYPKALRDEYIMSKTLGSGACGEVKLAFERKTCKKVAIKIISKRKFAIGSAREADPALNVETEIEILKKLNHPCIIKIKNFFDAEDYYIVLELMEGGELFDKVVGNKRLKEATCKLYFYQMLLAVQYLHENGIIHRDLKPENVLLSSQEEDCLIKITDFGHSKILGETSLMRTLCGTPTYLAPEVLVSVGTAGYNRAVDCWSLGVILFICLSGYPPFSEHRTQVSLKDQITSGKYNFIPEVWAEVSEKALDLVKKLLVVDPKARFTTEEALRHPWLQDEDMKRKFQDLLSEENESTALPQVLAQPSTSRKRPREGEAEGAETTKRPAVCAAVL
Note: test concentration or dose not given here.

Row | Binder | % activity (NEK11(h)) [%] | % activity (AMPKa1(h)) [%] | % activity (JNK1α1(h)) [%] | % activity (EphA8(h)) [%] | % activity (PAK6(h)) [%] | % activity (Ret(h)) [%] | % activity (DMPK(h)) [%] | % activity (Rsk2(h)) [%] | % activity (CHK2(I157T)(h)) [%]
1 | FAKLAARLYRKALARQLGVAA [MMI-0300] | 53 | 71 | 97 | 93 | 104 | 140 | 59 | 51 | 43
2 | KAFAKLAARLYRKALARQLGVAA [MMI-0400] | 33 | 87 | 98 | 146 | 100 | 145 | 54 | 38 | 41
